Test results reported in the supplement of paper PMC7877785.
± gives the uncertainty stated by the source.

Experiment: self-splicing fitness, log relative to wild type (ln ratio); higher = more splicing; Tetrahymena group I intron in knt gene, E. coli kanamycin selection, DiMSum; sequences stand for … in CUCUCU…GGAGGGAAAAGUUAUCAGGCAUGCACCUGGUAGCUAGUCUUUAAACCAAUAGAUUGCAUCGGUUUAAAAGGCAAGACCGUCAAAUUGCGGGAAAGGGGUCAACAGCCGUUCAGUACCAAGUCUCAGGGGAAACUUUGAGAUGGCCUUGCAAAGGGUAUGGUAAUAAGCUGACGGACAUGGUCCUAACCACGCAGCCAAGUCCUAAGUCAACAGAUCUUCUGUUGAUAUGGAUGCAGUUCACAGACUAAAUGUCGGUCGGGGAAGAUGUAUUCUUCUCAUAAGAUAUAGUCGGACCUCUCCUUAAUGGGAGCUAGCGGAUGAAGUGAUGCAACACUGGAGCCGCUGGGAACUAAUUUGUAUGCGAAAGUAUAUUGAUUAGUUUUGGAGUACUCGUGGUCG
Method in brief: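 Colonies from six replicate transformations of E. coli BL21(DE3) were pooled and amplicon-sequenced on an Illumina HiSeq 2500. The library placed an intron with all eight P1ex-region nucleotides randomised inside the knt kanamycin-resistance gene on pET-22b(+), and cells grew overnight at 37°C or 30°C on LB agar with or without 25 μg/mL kanamycin (plus 100 μg/mL carbenicillin, 50 μM IPTG, 0.2% rhamnose). Fitness is the DiMSum error-weighted combination of wild-type-normalised replicate fold changes, kanamycin versus none.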

Sequence | self-splicing fitness (ln) (30 °C) | self-splicing fitness (ln) (37 °C)
CCCUAGCAAUAUUACGCCCG | -3.81 ± 0.37 | -2.12 ± 0.37
CCCUAGCAAUAUUACGCGGA | -1.29 ± 0.12 | -0.827 ± 0.1
CCCUAGCAAUAUUACGCUCU | -4.04 ± 0.28 | -1.45 ± 0.2
CCCUAGCAAUAUUACGGAAC | -4.39 ± 0.43 | -2.85 ± 0.4
CCCUAGCAAUAUUACGGAGC | -3.31 ± 0.21 | -2.22 ± 0.23
CCCUAGCAAUAUUACGGCAC | -3.42 ± 0.21 | -1.5 ± 0.2
CCCUAGCAAUAUUACGGCCG | -2.29 ± 0.36 | -1.62 ± 0.34
CCCUAGCAAUAUUACGGCGU | -2.1 ± 0.15 | -2.35 ± 0.17
CCCUAGCAAUAUUACGGGCA | -2.16 ± 0.22 | -1.55 ± 0.2
CCCUAGCAAUAUUACGGGUA | -2.41 ± 0.14 | -3.01 ± 0.19
CCCUAGCAAUAUUACGGGUU | -4.16 ± 0.17 | -2.39 ± 0.15
CCCUAGCAAUAUUACGUAGA | -4.06 ± 0.26 | -3.05 ± 0.26
CCGAAGCAAUAUUACGAAAU | -4.57 ± 0.29 | -1.9 ± 0.2
CCGAAGCAAUAUUACGAAGA | -3.27 ± 0.39 | 
CCGAAGCAAUAUUACGAAGC |  | -1.59 ± 0.24
CCGAAGCAAUAUUACGACGG | -3.76 ± 0.27 | -3.11 ± 0.29
CCGAAGCAAUAUUACGACUU | -2.97 ± 0.22 | -3.91 ± 0.39
CCGAAGCAAUAUUACGAUCA | -2.35 ± 0.13 | -0.736 ± 0.14
CCGAAGCAAUAUUACGAUUA | -2.53 ± 0.14 | -2.31 ± 0.2
CCGAAGCAAUAUUACGCAGC | -3.49 ± 0.23 | -2.36 ± 0.37
CCGAAGCAAUAUUACGCCAG | -1.32 ± 0.11 | -0.531 ± 0.13
CCGAAGCAAUAUUACGCGCA | -2.85 ± 0.28 | -1.95 ± 0.21
CCGAAGCAAUAUUACGCGGA | -3.61 ± 0.43 | -1.78 ± 0.19
CCGAAGCAAUAUUACGCGGU | -3.64 ± 0.22 | -2.11 ± 0.2
CCGAAGCAAUAUUACGGCCU | -3.94 ± 0.36 | -2.02 ± 0.33

Sequence | self-splicing fitness (ln) (30 °C) | self-splicing fitness (ln) (37 °C)
CCGAAGCAAUAUUACGGGGG | -4.9 ± 0.46 | -2.26 ± 0.33
CCGAAGCAAUAUUACGUAUU | -4.74 ± 0.29 | -3.35 ± 0.2
CCGAAGCAAUAUUACGUGCA | -3.4 ± 0.3 | 
CCGAAGCAAUAUUACGUGCU | -4 ± 0.24 | -2.88 ± 0.28
CCGAAGCAAUAUUACGUGGC | -3.27 ± 0.19 | -2.61 ± 0.34
CCGAAGCAAUAUUACGUUAA |  | -0.989 ± 0.23
CCGAAGCAAUAUUACGUUCA | -2.76 ± 0.16 | -0.988 ± 0.23
CCGCAGCAAUAUUACGAAGU | -3.34 ± 0.31 | -2.5 ± 0.33
CCGCAGCAAUAUUACGACGU | -3.96 ± 0.21 | -2.38 ± 0.22
CCGCAGCAAUAUUACGAGUA | -3.31 ± 0.24 | -2.82 ± 0.28
CCGCAGCAAUAUUACGAUUG | -0.997 ± 0.085 | -0.816 ± 0.09
CCGCAGCAAUAUUACGCAAA | -3.29 ± 0.21 | -2.15 ± 0.22
CCGCAGCAAUAUUACGCAGU | -2.96 ± 0.18 | -1.48 ± 0.17
CCGCAGCAAUAUUACGCAUA | -3.34 ± 0.19 | -2.31 ± 0.17
CCGCAGCAAUAUUACGCCCU | -3.34 ± 0.47 | 0.196 ± 0.3
CCGCAGCAAUAUUACGCCGU | -3.34 ± 0.27 | -2.26 ± 0.22
CCGCAGCAAUAUUACGGCAA | -2.74 ± 0.24 | -2.53 ± 0.22
CCGCAGCAAUAUUACGGCGA | -1.15 ± 0.084 | -0.544 ± 0.085
CCGCAGCAAUAUUACGGCGC |  | -0.961 ± 0.22
CCGCAGCAAUAUUACGGUCA | -3.47 ± 0.29 | -2.46 ± 0.3
CCGCAGCAAUAUUACGUACU | -4.17 ± 0.33 | -3.33 ± 0.4
CCGCAGCAAUAUUACGUCCU | -3.12 ± 0.18 | -1.39 ± 0.17
CCGCAGCAAUAUUACGUCUU | -3.69 ± 0.37 | -3.07 ± 0.24
CCGCAGCAAUAUUACGUUAC | -3.36 ± 0.14 | -2.29 ± 0.14
